The values below come from publication PMC6570425, “Regulation of GLI1 by cis DNA elements and epigenetic marks”.

The target of one series is GLI2 (aa 84-355) (human, UniProt P10070-1 84-355). Kind of series: EMSA; Roche DIG gel shift kit binding buffer (1X from 5X; composition, salt and pH not given), 155 fmol probe, 20 pmol competitor, 4 C 20 min, 5% TBE gel. Conditions: protein: recombinant; tags: 6xHis; label: digoxigenin (or 32P); blunt.
Another series deals with GLI1 (aa 211-1106) (human, UniProt P08151 211-1106). The description is as above. To be noted: protein: recombinant; label: digoxigenin (or 32P); blunt.
GLI1 (aa 211-1106), sequence (P08151 211-1106): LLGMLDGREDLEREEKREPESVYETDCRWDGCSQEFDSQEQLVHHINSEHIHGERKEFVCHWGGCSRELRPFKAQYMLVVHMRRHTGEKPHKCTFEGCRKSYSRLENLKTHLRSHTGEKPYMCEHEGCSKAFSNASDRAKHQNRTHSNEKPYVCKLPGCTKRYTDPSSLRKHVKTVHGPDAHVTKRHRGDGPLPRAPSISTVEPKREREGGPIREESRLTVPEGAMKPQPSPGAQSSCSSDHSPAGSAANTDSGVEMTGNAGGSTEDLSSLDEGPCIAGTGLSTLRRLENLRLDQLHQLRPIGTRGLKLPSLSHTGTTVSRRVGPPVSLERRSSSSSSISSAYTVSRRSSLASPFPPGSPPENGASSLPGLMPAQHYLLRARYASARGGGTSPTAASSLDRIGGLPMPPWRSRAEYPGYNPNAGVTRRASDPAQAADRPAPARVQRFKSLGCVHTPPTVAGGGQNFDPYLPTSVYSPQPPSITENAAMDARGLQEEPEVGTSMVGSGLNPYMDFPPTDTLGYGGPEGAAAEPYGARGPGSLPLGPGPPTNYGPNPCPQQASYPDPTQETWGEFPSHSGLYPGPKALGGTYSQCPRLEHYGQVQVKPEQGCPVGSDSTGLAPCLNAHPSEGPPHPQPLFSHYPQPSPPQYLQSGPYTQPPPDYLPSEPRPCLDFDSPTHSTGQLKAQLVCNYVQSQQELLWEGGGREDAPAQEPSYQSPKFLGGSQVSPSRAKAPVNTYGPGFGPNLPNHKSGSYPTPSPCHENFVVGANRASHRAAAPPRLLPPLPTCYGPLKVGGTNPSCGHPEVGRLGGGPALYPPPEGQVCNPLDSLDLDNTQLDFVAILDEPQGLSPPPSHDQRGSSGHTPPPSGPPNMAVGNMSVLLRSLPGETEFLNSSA

GLI2 (aa 84-355), sequence (P10070 412-683): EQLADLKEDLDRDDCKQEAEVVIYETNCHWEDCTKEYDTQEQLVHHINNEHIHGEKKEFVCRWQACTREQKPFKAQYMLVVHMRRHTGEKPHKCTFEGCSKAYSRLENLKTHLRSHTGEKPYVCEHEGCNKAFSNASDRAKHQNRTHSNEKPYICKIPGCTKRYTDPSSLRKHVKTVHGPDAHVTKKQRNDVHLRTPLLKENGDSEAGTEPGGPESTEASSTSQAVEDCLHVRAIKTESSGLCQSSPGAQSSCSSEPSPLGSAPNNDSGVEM

B1: GBS #2 (dsDNA)
DNA 1: GGCGGCGACTTGGGTGGGCCGAGGAGGCA
DNA 2: TGCCTCCTCGGCCCACCCAAGTCGCCGCC
Turning to B1, the binding result with GLI2 (aa 84-355) and with GLI1 (aa 211-1106) was “binds” throughout.

B2: GBS #1 (dsDNA)
DNA 1: CTCTGGCTCAGACCACCCTGCCTGCCCTT
DNA 2: AAGGGCAGGCAGGGTGGTCTGAGCCAGAG
B2: the binding result with GLI2 (aa 84-355) and with GLI1 (aa 211-1106) was “binds” throughout.

B3: GBS #6 (dsDNA)
DNA 1: TCTACACACAGACCACACAGGCAAAGCTC
DNA 2: GAGCTTTGCCTGTGTGGTCTGTGTGTAGA
In the case of B3, the binding result with GLI2 (aa 84-355) and in the series with GLI1 (aa 211-1106) was “binds” each time.

B4: GBS #3 (dsDNA)
DNA 1: AGGGGAGATATGGGTGGGCTGTGGAACGC
DNA 2: GCGTTCCACAGCCCACCCATATCTCCCCT
For the molecule B4, the binding result with GLI2 (aa 84-355) and with GLI1 (aa 211-1106) was “binds” throughout.

B5: GBS #4 (dsDNA)
DNA 1: AGCATCCCGGGATCACCCACCGCGCCGGC
DNA 2: GCCGGCGCGGTGGGTGATCCCGGGATGCT
On to B5, for which the binding result in the series with GLI2 (aa 84-355) and with GLI1 (aa 211-1106) was “binds” each time.

B6: GBS #5 (dsDNA)
DNA 1: AAGGTCGAGTTGGGAGGTCTTGGATGCGG
DNA 2: CCGCATCCAAGACCTCCCAACTCGACCTT
With B6, the binding result with GLI2 (aa 84-355) and with GLI1 (aa 211-1106) was “binds” in each case.
